Experiment [1] deals with T1, GIP receptor.
T1 sequence (P48546 whole entry, species assumed, looked up): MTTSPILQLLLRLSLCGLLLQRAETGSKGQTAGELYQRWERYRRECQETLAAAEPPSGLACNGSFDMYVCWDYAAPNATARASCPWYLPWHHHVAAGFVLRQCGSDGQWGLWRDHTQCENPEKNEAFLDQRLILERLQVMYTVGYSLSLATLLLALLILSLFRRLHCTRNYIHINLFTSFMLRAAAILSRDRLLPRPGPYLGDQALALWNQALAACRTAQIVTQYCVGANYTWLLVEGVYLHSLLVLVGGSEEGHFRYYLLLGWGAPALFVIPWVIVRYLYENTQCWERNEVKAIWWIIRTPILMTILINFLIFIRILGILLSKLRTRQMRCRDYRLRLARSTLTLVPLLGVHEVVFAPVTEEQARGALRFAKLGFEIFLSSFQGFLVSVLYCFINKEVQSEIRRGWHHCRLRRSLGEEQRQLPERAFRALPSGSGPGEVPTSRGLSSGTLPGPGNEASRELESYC
Nature of the experiment: GIP receptor binding assay.

Experiment [2] concerns the target T2, GLP-1 receptor, P32301.
T2 chain: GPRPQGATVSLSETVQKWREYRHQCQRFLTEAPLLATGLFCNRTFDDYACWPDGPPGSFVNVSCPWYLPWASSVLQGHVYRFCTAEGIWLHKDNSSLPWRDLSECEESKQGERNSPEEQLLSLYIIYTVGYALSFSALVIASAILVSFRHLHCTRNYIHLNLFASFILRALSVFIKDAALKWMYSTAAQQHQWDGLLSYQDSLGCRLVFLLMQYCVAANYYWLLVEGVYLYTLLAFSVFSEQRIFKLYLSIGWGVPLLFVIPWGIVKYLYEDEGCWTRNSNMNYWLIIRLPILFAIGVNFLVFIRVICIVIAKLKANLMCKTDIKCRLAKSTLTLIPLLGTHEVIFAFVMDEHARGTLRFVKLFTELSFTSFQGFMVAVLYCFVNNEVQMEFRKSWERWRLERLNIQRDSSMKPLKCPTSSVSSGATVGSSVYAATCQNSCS
Nature of the experiment: GLP-1 receptor binding, displacement of [125I]GLP-1 on RINm5F cell membranes. For orientation: In a radioligand displacement assay an active substance lowers the binding of a labelled ligand.

Square brackets hold non-standard residues; d marks the D form. Ends that are not written are not given here.

As to Y[dA]EGTFISDYSIAMDKIHQQDFVNWLLAQKPKKIRYS [0601GIP4233, [dAla2] GIP-(1-30)-fGLP-1v2-(31-37)], in experiment [1], the GIP RBA came out at 0.1 nM.

YAEGTFISDYSIAMDKIHQQDFVNWLLAQKPSSGAPPPS (modifications not checked) [0601GIP3794, (D-Ala2)GIP(1-30)-… amide form] displayed a GLP RBA in experiment [2] of 1000.

The values above are taken from patent US20090036364A1.
